Assay results as given in publication doi:10.1101/2022.06.01.494241 (bioRxiv, 2022).

Biological target: T1, μMASS^2A (rat)
T1 chain: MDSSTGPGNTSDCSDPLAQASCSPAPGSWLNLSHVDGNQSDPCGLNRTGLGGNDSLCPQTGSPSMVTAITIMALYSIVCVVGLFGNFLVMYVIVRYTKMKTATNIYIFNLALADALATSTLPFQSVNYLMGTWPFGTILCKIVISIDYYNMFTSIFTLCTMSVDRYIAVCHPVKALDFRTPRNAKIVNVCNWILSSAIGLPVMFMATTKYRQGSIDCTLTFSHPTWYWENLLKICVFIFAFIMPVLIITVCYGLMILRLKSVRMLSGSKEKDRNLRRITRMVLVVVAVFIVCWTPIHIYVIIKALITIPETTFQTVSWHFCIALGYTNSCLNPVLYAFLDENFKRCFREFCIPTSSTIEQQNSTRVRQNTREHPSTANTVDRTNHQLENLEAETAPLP
Assay: other fluorescence titration

- Kd: 1.18 µM
Binder: YGGFMTSEKSQTPLVTLFKNAIIKNAYKKGE (peptide, UniProt P01189 237-267, looked up) [β-endorphin]
